*1 amine or outer side, *2 acyl side, *3 side chain or, on linkers, in order; H or OH if unused. Where a SMILES comes first, the peptide text is derived from it. Bridges are numbered along the chain shown (N, C = ends). Where no end group is shown, it is not given here. [ ]: non-standard residue; d: D form. X1 = O=C(C(CN[*:1])c1ccccc1)[*:2]; NMeL = CN[C@@H](CC(C)C)C(=O)O; Tle = CC(C)(C)[C@H](N)C(=O)O
T1: NPR-B (natriuretic peptide receptor B), murine, expressed endogenously on NIH3T3 cells (murine, UniProt Q6VVW5 17-1047)
T1 sequence (looked up): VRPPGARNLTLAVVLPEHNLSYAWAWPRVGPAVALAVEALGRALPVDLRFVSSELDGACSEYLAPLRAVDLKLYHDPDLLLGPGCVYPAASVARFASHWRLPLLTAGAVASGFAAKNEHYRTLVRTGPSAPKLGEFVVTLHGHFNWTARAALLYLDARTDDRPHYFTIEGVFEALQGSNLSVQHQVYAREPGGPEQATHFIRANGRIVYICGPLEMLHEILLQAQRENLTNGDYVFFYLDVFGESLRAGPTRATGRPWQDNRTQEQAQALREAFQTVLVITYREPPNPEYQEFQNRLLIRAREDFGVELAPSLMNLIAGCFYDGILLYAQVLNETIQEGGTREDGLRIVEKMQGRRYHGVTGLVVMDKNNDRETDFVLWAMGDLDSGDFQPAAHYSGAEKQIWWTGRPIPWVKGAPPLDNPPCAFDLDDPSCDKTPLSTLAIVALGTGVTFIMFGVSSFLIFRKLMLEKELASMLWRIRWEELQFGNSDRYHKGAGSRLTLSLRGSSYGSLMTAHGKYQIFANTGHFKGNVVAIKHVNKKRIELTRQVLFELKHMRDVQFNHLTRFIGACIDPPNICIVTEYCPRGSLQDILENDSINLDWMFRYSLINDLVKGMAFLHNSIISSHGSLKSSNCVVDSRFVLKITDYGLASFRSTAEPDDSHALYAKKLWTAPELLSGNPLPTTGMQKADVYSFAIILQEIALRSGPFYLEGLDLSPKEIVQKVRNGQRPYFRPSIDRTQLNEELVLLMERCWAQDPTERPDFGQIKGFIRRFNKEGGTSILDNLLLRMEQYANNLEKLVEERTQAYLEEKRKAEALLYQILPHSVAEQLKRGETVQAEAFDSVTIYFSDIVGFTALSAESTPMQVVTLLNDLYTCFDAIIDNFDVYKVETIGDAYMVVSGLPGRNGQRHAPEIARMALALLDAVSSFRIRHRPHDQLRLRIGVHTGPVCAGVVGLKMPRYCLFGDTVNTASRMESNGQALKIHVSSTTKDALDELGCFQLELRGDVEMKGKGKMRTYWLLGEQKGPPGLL


What was measured:
[1] = target: neutral endopeptidase (NEP) (Homo sapiens, UniProt P08473); assay: in vitro NEP cleavage assay (disappearance of non-cleaved CNP variant); conditions: human, pH 7
neutral endopeptidase (NEP), sequence (P08473 whole entry): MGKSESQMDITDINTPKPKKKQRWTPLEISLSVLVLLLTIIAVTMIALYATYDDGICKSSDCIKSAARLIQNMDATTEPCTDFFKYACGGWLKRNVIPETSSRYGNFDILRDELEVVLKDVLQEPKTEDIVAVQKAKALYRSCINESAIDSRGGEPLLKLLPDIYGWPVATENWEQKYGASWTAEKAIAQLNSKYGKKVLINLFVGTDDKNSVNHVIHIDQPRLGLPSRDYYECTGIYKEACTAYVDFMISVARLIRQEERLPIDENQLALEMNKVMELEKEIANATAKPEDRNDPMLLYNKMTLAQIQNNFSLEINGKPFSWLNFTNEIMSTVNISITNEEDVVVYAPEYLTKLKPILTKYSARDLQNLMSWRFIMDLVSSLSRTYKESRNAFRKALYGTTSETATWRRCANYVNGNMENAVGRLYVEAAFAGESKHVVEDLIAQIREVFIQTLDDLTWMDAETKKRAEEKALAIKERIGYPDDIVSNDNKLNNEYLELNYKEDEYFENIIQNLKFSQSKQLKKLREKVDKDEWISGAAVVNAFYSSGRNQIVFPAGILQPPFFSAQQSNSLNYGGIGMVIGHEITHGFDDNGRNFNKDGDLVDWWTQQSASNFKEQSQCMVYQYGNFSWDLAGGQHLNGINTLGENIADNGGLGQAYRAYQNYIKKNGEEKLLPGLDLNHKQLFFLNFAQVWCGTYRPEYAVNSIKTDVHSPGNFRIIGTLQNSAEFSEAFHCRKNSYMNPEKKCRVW
Outline: (§1)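 Recombinant human NEP (1 ug/mL final) incubated with 100 uM CNP variant in 0.1 M Tris, pH 7, at 37° C for various times, then quenched with EDTA (10 mM final) and heat. Samples reduced and analysed by HPLC and mass spectrometry. Half-life derived from loss of intact variant over time.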

Recombinant human NEP = Recombinant human NEP (Homo sapiens, UniProt P08473); assay: as above
Recombinant human NEP, sequence (P08473 whole entry): as above
Outline: as §1

[2] = pharmacokinetics in rats (plasma CNP immunoreactivity by RIA); type: in vivo, rat; conditions: male, rat, plasma, iv, i.v. 20 nmol/kg
Experimental: Recombinant wild-type CNP22, CNP37 and PEO24-GANRR-CNP22 […]) (SEQ ID NO: 36) were evaluated. […] Standard and QC samples were prepared. […] Plasma CNP immunoreactivity was employed for pharmacokinetics (PK) analysis. PK analysis was performed using WINNONLIN® Professional (Pharsight Corporation).

[3] = target: T1, NPR-B (natriuretic peptide receptor B), …; assay: cell-based or functional assay

| Molecule | cGMP response rel. to 1 uM CNP22; 10 nM peptide, NIH3T3 cells [3] | cGMP response rel. to 1 uM CNP22; 1 uM peptide, NIH3T3 cells [3] | further results |
| --- | --- | --- | --- |
| CC[C@H](C)[C@@H]1NC(=O)[C@H](CCCNC(=N)N)NC(=O)[C@H](CC(=O)O)NC(=O)[C@H](CC(C)C)NC(=O)[C@H](CCCCN)NC(=O)[C@H](CC(C)C)NC(=O)CNC(=O)[C@H](Cc2ccccc2)NC(=O)[C@@H](NC(=O)CNC(=O)CNC(=O)[C@H](CO)NC(=O)[C@H](CC(C)C)NC(=O)CN)CSSC[C@@H](C(=O)O)NC(=O)CNC(=O)[C@H](CC(C)C)NC(=O)CNC(=O)[C@H](CO)NC(=O)[C@H](CCSC)NC(=O)[C@H](CO)NC(=O)CNC1=O [Analog P, CNP22, K4G] (H-GLSGGCFGLKLDRIGSMSGLGC-OH; disulfide 6-22) |  |  | half-life at 100 uM ([1]; recombinant human neutral endopeptidase (NEP)): 1.13 h |
| CC[C@H](C)[C@@H]1NC(=O)[C@H](CCCNC(=N)N)NC(=O)[C@H](CC(=O)O)NC(=O)[C@H](CC(C)C)NC(=O)[C@H](CCCCN)NC(=O)[C@H](CC(C)C)NC(=O)CNC(=O)C(c2ccccc2)CNC(=O)[C@@H](NC(=O)CNC(=O)[C@H](CCCCN)NC(=O)[C@H](CO)NC(=O)[C@H](CC(C)C)NC(=O)CN)CSSC[C@@H](C(=O)O)NC(=O)CNC(=O)[C@H](CC(C)C)NC(=O)CNC(=O)[C@H](CO)NC(=O)[C@H](CCSC)NC(=O)[C@H](CO)NC(=O)CNC1=O (some centres unmarked) [Analog H] (H-GLSKGC[X1]GLKLDRIGSMSGLGC-OH; disulfide 6-22) |  |  | resistance to cleavage at the Cys6-Phe7 bond relative to wtCNP22 (Recombinant human NEP): resistance or improved resistance; half-life at 100 uM ([1]; recombinant human NEP (neutral endopeptidase)): 1.33 h |
| CC[C@H](C)[C@@H]1NC(=O)[C@H](CCCNC(=N)N)NC(=O)[C@H](CC(=O)O)NC(=O)[C@H](CC(C)C)NC(=O)[C@H](CCCCN)NC(=O)[C@H](CC(C)C)NC(=O)CNC(=O)[C@H](Cc2ccccc2)NC[C@@H](NC(=O)CNC(=O)[C@H](CCCCN)NC(=O)[C@H](CO)NC(=O)[C@H](CC(C)C)NC(=O)CN)CSSC[C@@H](C(=O)O)NC(=O)CNC(=O)[C@H](CC(C)C)NC(=O)CNC(=O)[C@H](CO)NC(=O)[C@H](CCSC)NC(=O)[C@H](CO)NC(=O)CNC1=O [Analog A] |  |  | resistance to cleavage at the Cys6-Phe7 bond relative to wtCNP22 (Recombinant human NEP): resistance or improved resistance; half-life at 100 uM [1]: 0.917 h |
| CC[C@H](C)[C@@H]1NC(=O)[C@H](CCCNC(=N)N)NC(=O)[C@H](CC(=O)O)NC(=O)[C@H](CC(C)C)NC(=O)[C@H](CCCCN)NC(=O)[C@H](CC(C)C)NC(=O)CNC(=O)[C@H](Cc2ccccc2)NC(=O)[C@@H](NC(=O)CNC(=O)[C@H](CCCCN)NC(=O)[C@H](CO)NC(=O)[C@H](CC(C)C)NC(=O)CNC(=O)[C@H](CCCCN)NC(=O)[C@H](CCCCN)NC(=O)[C@H](CC(N)=O)NC(=O)[C@H](C)NC(=O)CNC(=O)[C@H](CCCCN)NC(=O)[C@H](Cc2ccc(O)cc2)NC(=O)[C@H](CCCCN)NC(=O)[C@H](CCCNC(=N)N)NC(=O)[C@H](C)NC(=O)[C@H](CC(N)=O)NC(=O)[C@@H]2CCCN2C(=O)[C@H](Cc2c[nH]cn2)NC(=O)[C@H](CCC(=O)O)NC(=O)[C@@H](N)CCC(N)=O)CSSC[C@@H](C(=O)O)NC(=O)CNC(=O)[C@H](CC(C)C)NC(=O)CNC(=O)[C@H](CO)NC(=O)[C@H](CCSC)NC(=O)[C@H](CO)NC(=O)CNC1=O [Analog BL] |  |  | AUC ([2]; read-out: area under the curve, AUC (converted)): 0.026 µM·h; half-life ([2]; read-out: half-life, T1/2): 0.825 h |
| CC[C@H](C)[C@@H]1NC(=O)[C@H](CCCNC(=N)N)NC(=O)[C@H](CC(=O)O)NC(=O)[C@H](CC(C)C)NC(=O)[C@H](CCCCN)NC(=O)[C@H](CC(C)C)NC(=O)CNC(=O)[C@H](Cc2ccccc2)NC(=O)[C@@H](NC(=O)CNC(=O)[C@H](CCCCN)NC(=O)[C@H](CO)NC(=O)[C@H](CC(C)C)NC(=O)CNC(=O)CCOCCOCCOCCOCCOCCOCCOCCOCCOCCOCCOCCOC)CSSC[C@@H](C(=O)O)NC(=O)CNC(=O)[C@H](CC(C)C)NC(=O)CNC(=O)[C@H](CO)NC(=O)[C@H](CCSC)NC(=O)[C@H](CO)NC(=O)CNC1=O [PEO12-CNP22] |  |  | half-life at 100 uM [1]: 2.67 h |
| CC[C@H](C)[C@@H]1NC(=O)[C@H](CCCNC(=N)N)NC(=O)[C@H](CC(=O)O)NC(=O)[C@H](CC(C)C)NC(=O)[C@H](CCCCN)NC(=O)[C@H](CC(C)C)NC(=O)CNC(=O)[C@H](Cc2ccccc2)NC(=O)[C@@H](NC(=O)CNC(=O)[C@H](CCCCN)NC(=O)[C@H](CO)NC(=O)[C@H](CC(C)C)NC(=O)CNC(=O)CCCC(=O)NCCOCCOCCOCCOCCC(=O)NC(COCCC(=O)NCCOCCOCCOCCOCCOCCOCCOCCOCCOCCOCCOC)(COCCC(=O)NCCOCCOCCOCCOCCOCCOCCOCCOCCOCCOCCOC)COCCC(=O)NCCOCCOCCOCCOCCOCCOCCOCCOCCOCCOCCOC)CSSC[C@@H](C(=O)O)NC(=O)CNC(=O)[C@H](CC(C)C)NC(=O)CNC(=O)[C@H](CO)NC(=O)[C@H](CCSC)NC(=O)[C@H](CO)NC(=O)CNC1=O [PEO4-(PEO12)3(branched)-CNP22] |  |  | half-life at 100 uM [1]: > 2.67 h |
| GLSKGCXGLKLDRIGSMSGLGC (3-Cl-Phe at 7) [CNP22, 3-chloro-F7] | 17 rel. to 1 uM CNP22 (100) | 93 rel. to 1 uM CNP22 (100) |  |
| GLSKGCFGLKLDRIGSMSGLGC (ends and bridges not checked; also: backbone C=O of Cys6 reduced to CH2 (C6-CH2-NH isostere)) [CNP22, C6-CH2-NH (reduced carbonyl)] | 6 rel. to 1 uM CNP22 (100) | 66 rel. to 1 uM CNP22 (100) |  |
| G[dL][dS][dK]G[dC][dF]G[dL][dK][dL][dD][dR][dI]G[dS][dM][dS]G[dL]G[dC] (ends and bridges not checked) [D-CNP22 (all D-amino acids)] | 2 rel. to 1 uM CNP22 (100) | 1 rel. to 1 uM CNP22 (100) |  |
| GLSKGCXGLKLDRIGSMSGLGC (D-Phe at 7) [CNP22, D-F7 (D-Phe)] | 2 rel. to 1 uM CNP22 (100) | 6 rel. to 1 uM CNP22 (100) |  |
| GLSKGCFG[NMeL]KLDRIGSMSG[NMeL]GC (ends and bridges not checked) [CNP22, N-methyl-L9, N-methyl-L20] | 1 rel. to 1 uM CNP22 (100) | 1 rel. to 1 uM CNP22 (100) |  |
| GLSKGCF[Tle]LKLDRIGSMSGLGC (ends and bridges not checked) [CNP22, t-butyl-G8] | 2 rel. to 1 uM CNP22 (100) | 18 rel. to 1 uM CNP22 (100) |  |
| GLSKGCFG[NMeL]K[NMeL]DRIGSMSG[NMeL]GC (ends and bridges not checked) [CNP22, N-methyl-L9, N-methyl-L11, N-methyl-L20] | 18 rel. to 1 uM CNP22 (100) | 10 rel. to 1 uM CNP22 (100) |  |

Source: patent publication USRE48267E1, “Variants of C-type natriuretic peptide” (priority 2009, dated 2020)
